Results: patent US6989144

Experiments:
[1] = target: GPVI on baboon platelets (baboon); test: flow cytometry, washed baboon platelets; negative control
collagen type I = test: cell-based or functional assay
[2] = target: soluble human GPVI-Fc (extracellular domain of GPVI fused to Fc; hGPVI-human IgG1Fc) (human) (UniProt Q9HCN6); test: 125I-convulxin binding to GPVI-Fc captured on 1P10.2, 10 µg/ml reagent; competitor ligand convulxin
[3] = target: GPVI on baboon platelets (baboon); test: flow cytometry, washed baboon platelets

soluble human GPVI-Fc (extracellular domain of GPVI fused to Fc; hGPVI-human IgG1Fc) (human), sequence (Q9HCN6 other isoform, or with tags, fused parts or gaps): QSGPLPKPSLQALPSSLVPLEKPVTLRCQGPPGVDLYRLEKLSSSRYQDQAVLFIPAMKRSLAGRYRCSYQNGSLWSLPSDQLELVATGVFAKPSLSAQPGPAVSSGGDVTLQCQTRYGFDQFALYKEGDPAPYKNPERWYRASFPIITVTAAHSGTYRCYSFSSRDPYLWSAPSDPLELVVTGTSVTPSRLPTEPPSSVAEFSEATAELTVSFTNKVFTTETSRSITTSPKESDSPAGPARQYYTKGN

Row | Baboon fluorescence intensity [1] | Baboon platelets % positive [1] | Substance | further results
1 | 10 | 9% | monoclonal antibody 7120.2 (negative control) | 
2 |  |  | recombinant human soluble GPVI:Fc (rhusGPVI:Fc) (from UniProt Q9HCN6 21-269) (Fc fusion) | collagen-induced platelet aggregation and secretion (collagen type I): 10 fold
3 |  |  | mouse monoclonal antibody produced by hybridoma cell line 9012.2 | % blocking of GPVI-Fc binding to convulxin [2]: > 25%; Baboon fluorescence intensity [3]: 18; Baboon platelets % positive [3]: 33.8%
4 | 9 | 6.8% | monoclonal antibody 7H14.1 (negative control) | 
